The results in this text go back to publication PMC3021122.

This experiment concerns the target Shigella flexneri Spa15 (residues 1-133), N-terminal His tag, unlabelled (Shigella flexneri) (UniProt P35530). The experiment is described as follows: multi-angle laser light scattering; co-purified Spa15:IpgB1 complex; data not shown.

In turn, “Shigella flexneri IpgB1 (residues 1-208) (natural protein)” displayed a stoichiometry N (Spa15 per IpgB1) of 2.
